What was measured:
Type in all cases: in vivo, C. elegans
[1] = tested on: N2 animals; assay: Embryonic lethality assay in liquid media with purified proteins; details: 2.8 μM tCPR-4 proteins or 0.27 μM rhCTSB, 48 hours
Description: Embryonic lethality and larval arrest assays. For embryonic lethality assays caused by direct irradiation, after irradiated with 100 J/m^2 UV or 500 Gy gamma ray, gravid adults were placed on NGM plates to lay eggs for 4 hours at 25° C. and then removed from the plates. For embryonic lethality assays in liquid media, L4 larvae were cultured in conditioned medium or S-Medium containing the purified proteins at 20° C. for 48 hours, transferred to fresh NGM plates from the liquid media, and allowed to lay eggs for 4 hours at 25° C., before the adult animals were removed. For embryonic lethality assays in transgenic animals expressing CPR-4 in the pharynx, transgenic gravid adults at 24 hours post L4 were placed on NGM plates to lay eggs for 4 hours at 25° C. and then removed from the plates.

[2] = tested on: germ cell corpses in ced-1(e1735) animals; assay: Germ cell corpse assay with recombinant proteins in liquid culture
Description: Growing C. elegans animals in 96-well plates. HB101 bacteria were mixed with 100 μL conditioned medium (0.1 μg/μL) or 100 μL S-Medium containing 2.8 μM of recombinant tCPR-4 proteins (wild-type or mutant) or 0.27 μM recombinant human cathepsin B in a 96-well plate. Approximately 60 L4 larvae were transferred into each well of the plate. After being cultured in liquid media for 48 hours, these animals were scored for the numbers of germ cell corpses and mitotic nuclei. Quantification of germ cell corpses. L4 animals were cultured in liquid media in a 96-well plate as described above. After 48 hours, they were transferred to NGM plates and allowed to recover for 1 hour at 20° C. The animals were then anesthetized by 20 mM NaN3, mounted onto 2% agar pad, and scored under Nomarski optics. For transgenic animals expressing CPR-4 in the pharynx, L4 animals were grown on NGM plates for 24 hours at 20° C. before they were scored for germ cell corpses. Only the posterior arms of intact gonads were scored. Blind tests were carried out in all germ cell corpse quantification experiments.

[3] = tested on: germline mitotic zone nuclei; assay: Germ cell proliferation assay (mitotic nuclei); details: 2.8 μM tCPR-4, 48 hours
Description: Growing C. elegans animals in 96-well plates. HB101 bacteria were mixed with 100 μL conditioned medium (0.1 μg/μL) or 100 μL S-Medium containing 2.8 μM of recombinant tCPR-4 proteins (wild-type or mutant) or 0.27 μM recombinant human cathepsin B in a 96-well plate. Approximately 60 L4 larvae were transferred into each well of the plate. After being cultured in liquid media for 48 hours, these animals were scored for the numbers of germ cell corpses and mitotic nuclei. Quantification of mitotic nuclei. L4 animals treated with 2.8 μM of purified tCPR-4 proteins in liquid culture for 48 hours were transferred to NGM plates and allowed to recover for 1 hour at 20° C. They were then dissected to expose their gonads following the protocol described previously. Dissected gonads were fixed and stained with DAPI. The number of germ nuclei and the number of metaphase nuclei in the mitotic zone of each gonad were scored using a Zeiss Nomarski microscope with a DAPI filter.

B1: tCPR-4: recombinant truncated CPR-4 lacking its signal peptide (residues 1-15) (protein, UniProt P43508 81-335, looked up)
Cathepsin B-like cysteine …: IPATFDARTQWPNCMSINNIRDQSDCGSCWAFAAAEAASDRFCIASNGAVNTLLSAEDVLSCCSNCGYGCEGGYPINAWKYLVKSGFCTGGSYEAQFGCKPYSLAPCGETVGNVTWPSCPDDGYDTPACVNKCTNKNYNVAYTADKHFGSTAYAVGKKVSQIQAEIIAHGPVEAAFTVYEDFYQYKTGVYVHTTGQELGGHAIRILGWGTDNGTPYWLVANSWNVNWGENGYFRIIRGTNECGIEHAVVGGVPKV
Embryonic lethality of treated N2 animals [1]: increased embryonic lethality
Germ cell death in ced-1(e1735); daf2(e1370) mutant ([2]; 2.8 μM tCPR-4, 48 hours): did not further reduce germ cell death
Germ cell death in ced-1(e1735); pdk-1(sa680) animals ([2]; 2.8 μM tCPR-4, 48 hours): did not reduce germ cell death
Germ cell corpses in ced-1(e1735) animals ([2]; 2.8 μM tCPR-4 proteins or 0.27 μM rhCTSB, L4 larvae, 48 hours): reduced germ cell corpses
Germ cell nuclei and metaphase nuclei in the mitotic zone of N2 animals [3]: more germ cell nuclei and more metaphase nuclei in the mitotic zone

From patent US11452709B2, “Compositions and methods for preventing and treating radiation-induced bystander effects caused by radiation or radiotherapy” (The Regents of the University of Colorado, priority 2017, dated 2022)
